Measurements published in the FLAb antibody collection.
Changes are numbered by the printed parent chain.

B1: unnamed (protein)
chain 1: QIQLQQSGPEVVKPGASVKISCKASGYTFTDYYITWVKQKPGQGLEWIGWIYPGSGNTKYNEKFKGKATLTVDTSSSTAFMQLSSLTSEDTAVYFCANYGNYWFAYWGQGTQVTVSA
chain 2: DIVLTQSPASLAVSLGQRATISCKASQSVDFDGDSYMNWYQQKPGQPPKVLIYAASNLESGIPARFSGSGSGTDFTLNIHPVEEEDAATYYCQQSNEDPWTFGGGTKLEIK
B2: unnamed (protein)
chain 1: EVQLQQSGPELVKPGASVKMSCKASGYTFTSYVVHWVKQNPGQGLEWIGYINPFNDGTKYNENFKGKATLTSDRSSSTAYMELSSLTSEESAVYFCARDMGREGFAYWGQGTLVTVSA
chain 2: DIVMTQAAFSNPVTLGTSASISCRSSKSLLHSNGITYLYWYLQKPGQSPQLLIYQMSNLASGVPDRFSSSGSGTDFTLRISRVEAEDVGVYYCAQNLELPRTFGGGTKLEI
B3: unnamed (protein)
chain 1: EVQLVESGGGLVQPGGSLRLSCAASGYVFTDYGMNWVRQAPGKGLEWMGWINTYIGEPIYADSVKGRFTFSLDTSKSTAYLQMNSLRAEDTAVYYCARGYRSYAMDYWGQGTLVTVSS
chain 2: DIQMTQSPSSLSASVGDRVTITCKASQNVGTNVAWYQQKPGKAPKALIYSASFLYSGVPYRFSGSGSGTDFTLTISSLQPEDFATYYCQQYNIYPLTFGQGTKVEIK
B4: unnamed (protein)
chain 1: EVQLVESGGGLVQPGGSLRLSCAASGFTFSDYNMAWVRQAPGKGLEWVATITYEGRNTYYRDSVKGRFTISRDNAKNSLYLQMNSLRAEDTAVYYCASPPQYYEGSIYRLWFAHWGQGTLVTVSS
chain 2: AIQLTQSPSSLSASVGDRVTITCRADESVRTLMHWYQQKPGKAPKLLIYLVSNSEIGVPDRFSGSGSGTDFRLTISSLQPEDFATYYCQQTWSDPWTFGQGTKVEIK
B5: unnamed (protein)
chain 1: QVQLVESGGGVVQPGRSLRLSCAASGFTFSVYGMNWVRQAPGKGLEWVAIIWYDGDNQYYADSVKGRFTISRDNSKNTLYLQMNGLRAEDTAVYYCARDLRTGPFDYWGQGTLVTVSS
chain 2: EIVLTQSPDFQSVTPKEKVTITCRASQSIGSSLHWYQQKPDQSPKLLIKYASQSFSGVPSRFSGSGSGTDFTLTINSLEAEDAAAYYCHQSSSLPFTFGPGTKVDIK
B6: unnamed (protein)
chain 1: QVQLVQSGAEVKKPGASVKVSCKVSGYTLSDLSIHWVRQAPGKGLEWMGGFDPQDGETIYAQKFQGRVTMTEDTSTDTAYMELSSLKSEDTAVYYCATGSSSSWFDPWGQGTLVTVSS
chain 2: DIQMTQSPSSVSASVGDRVTITCRASQGISSWLAWYQQKPGKAPKLLIYGASNLESGVPSRFSGSGSGTDFTLTISSLQPEDFANYYCQQANSFPWTFGQGTKVEIK
B7: unnamed (protein)
chain 1: QLQLQESGPGLLKPSETLSLTCTVSGGSISSPGYYGGWIRQPPGKGLEWIGSIYKSGSTYHNPSLKSRVTISVDTSKNQFSLKLSSVTAADTAVYYCTRPVVRYFGWFDPWGQGTLVTVSS
chain 2: AIQLTQSPSSLSASVGDRVTITCRASQGISSALAWYQQKPGKAPKLLIYDASNLESGVPSRFSGSGSGTDFTLTISSLQPEDFATYYCQQFNSYPTFGQGTKVEIK
B8: unnamed (protein)
chain 1: QVQLVQSGAEVKKPGASVKVSCKASGYTFTNHYMHWVRQAPGQGLEWMGIINPISGSTSNAQKFQGRVTMTRDTSTSTVYMELSSLRSEDTAVYYCARDIVDAFDFWGQGTMVTVSS
chain 2: B7 chain 2 with A34V, N53S, S93D, P95F, Q99P, E104D
B9: unnamed (protein)
chain 1: QVQLVQSGAEVKKPGASVKVSCKASGYTFTSYYMHWVRQAPGQGLEWMGEISPFGGRTNYNEKFKSRVTMTRDTSTSTVYMELSSLRSEDTAVYYCARERPLYASDLWGQGTTVTVSS
chain 2: DIQMTQSPSSLSASVGDRVTITCRASQGISSALAWYQQKPGKAPKLLIYSASYRYTGVPSRFSGSGSGTDFTFTISSLQPEDIATYYCQQRYSLWRTFGQGTKLEIK
B10: unnamed (protein)
chain 1: QVQLVQSGAEVKKPGASVKVSCKASGYTFTRYGISWVRQAPGQGLEWMGWISTYSGNTNYAQKLQGRVTMTTDTSTSTAYMELRSLRSDDTAVYYCARRQLYFDYWGQGTLVTVSS
chain 2: EIVMTQSPATLSVSPGERATLSCRASQSVSSNLAWFQQKPGQAPRPLIYDASTRATGVPARFSGSGSGTDFTLTISSLQSEDFAVYYCQQYDNWPLTFGGGTKVEIK
B11: unnamed (protein)
chain 1: EVQLLESGGVLVQPGGSLRLSCAASGFTFSNFGMTWVRQAPGKGLEWVSGISGGGRDTYFADSVKGRFTISRDNSKNTLYLQMNSLKGEDTAVYYCVKWGNIYFDYWGQGTLVTVSS
chain 2: DIQMTQSPSSLSASVGDSITITCRASLSINTFLNWYQQKPGKAPNLLIYAASSLHGGVPSRFSGSGSGTDFTLTIRTLQPEDFATYYCQQSSNTPFTFGPGTVVDFR
B12: unnamed (protein)
chain 1: QVQLVESGGGVVQPGRSLRLSCAASGFTFSSYGMHWVRQAPGKGLEWVAVIWYDGSNEYYADSVKGRFTISRDNSKNTLYLQMNSLRAEDTAVYYCARDRGYTSSWYPDAFDIWGQGTMVTVSS
chain 2: QSVLTQPPSVSGAPGQRVTISCTGSSSNTGAGYDVHWYQQVPGTAPKLLIYGSGNRPSGVPDRFSGSKSGTSASLAITGLQAEDEADYYCQSYDSSLSGWVFGGGTRLTVL
B13: unnamed (protein)
chain 1: EVQLVESGGGLVEPGGSLRLSCAVSGFDFEKAWMSWVRQAPGQGLQWVARIKSTADGGTTSYAAPVEGRFIISRDDSRNMLYLQMNSLKTEDTAVYYCTSAHWGQGTLVTVSS
chain 2: SYELTQPPSVSVSPGQTARITCSGEALPMQFAHWYQQRPGKAPVIVVYKDSERPSGVPERFSGSSSGTTATLTITGVQAEDEADYYCQSPDSTNTYEVFGGGTKLTVL
B14: unnamed (protein)
chain 1: EVQLQQSGAELVKPGASVKLSCTASGFNIKDTYVHWVKQRPEQGLEWIGRIDPANGYTKYDPKFQGKATITADTSSNTAYLQLSSLTSEDTAVYYCVRPLYDYYAMDYWGQGTSVTVSS
chain 2: DILMTQSPSSMSVSLGDTVSITCHASQGISSNIGWLQQKPGKSFMGLIYYGTNLVDGVPSRFSGSGSGADYSLTISSLDSEDFADYYCVQYAQLPYTFGGGTKLEIK
B15: unnamed (protein)
chain 1: ELQLQESGPGLVKPSETLSLTCTVSGGSISSGSYYWDWIRQPPGKGLEWIGNIYKSGSTYYNPSLKSRVTISVDTSKNQFSLKLSSVTAADTAVYYCARERGMHYMDVWGKGTTVTVSS
chain 2: DIQMTQSPSSLSASVGDRVTITCRASQSINSYLNWYQQKPGKAPKLLIYAASSLQSGVPSRFSGSGSGTDFTLTISSLQPEDFATYYCQQQFDPPFTFGGGTKVEIK
B16: unnamed (protein)
chain 1: EVQLVESGGGLVQPGGSLRLSCAASGYTFTNYGMNWVRQAPGKGLEWVGWINTYTGEPTYAADFKRRFTFSLDTSKSTAYLQMNSLRAEDTAVYYCAKYPHYYGSSHWYFDVWGQGTLVTVSS
chain 2: DIQMTQSPSSLSASVGDRVTITCSASQDISNYLNWYQQKPGKAPKVLIYFTSSLHSGVPSRFSGSGSGTDFTLTISSLQPEDFATYYCQQYSTVPWTFGQGTKVEIK
B17: unnamed (protein)
chain 1: EVQLVESGGGLVQPGGSLRLSCAASGFTFNTYAMYWIRQAPGKGLEWVARIRSKSNNYAIYYADSVKDRFTISRDDSKNSLYLQMNSLKTEDTAVYYCARPYSDSFAYWGQGTLVTVSS
chain 2: DVVMTQSPLSLPVTPGEPASISCRSSQSLVHSTGNTYLHWYLQKPGQSPQLLIYKVSNRFSGVPDRFSGSGSGTDFTLKISRVEAEDVGVYYCSQSTHVPFTFGGGTKVEIK
B18: unnamed (protein)
chain 1: EVTLRESGPGLVKPTQTLTLTCTLYGFSLSTSDMGVDWIRQPPGKGLEWLAHIWWDDVKRYNPALKSRLTISKDTSKNQVVLKLTSVDPVDTATYYCARTVSSGYIYYAMDYWGQGTLVTVSS
chain 2: DIQMTQSPSSLSASVGDRVTISCRASQDIRNYLNWYQQKPGKAPKLLIFYTSKLHSGVPSRFSGSGSGTDYTLTISSLQPEDIATYYCQQGNTLPLTFGGGTKVEIK
B19: unnamed (protein)
chain 1: QVQLQQSGAELVRPGSSVKISCKASGYAFSSYWMNWVKQRPGQGLEWIGQIWPGDGDTNYNGKFKGKATLTADESSSTAYMQLSSLASEDSAVYFCARRETTTVGRYYYAMDYWGQGTTVTVSS
chain 2: DIQLTQSPASLAVSLGQRATISCKASQSVDYDGDSYLNWYQQIPGQPPKLLIYDASNLVSGIPPRFSGSGSGTDFTLNIHPVEKVDAATYHCQQSTEDPWTFGGGTKLEIK

Test: patients with anti-drug antibodies; higher = more immunogenic

Protein | patients with anti-drug antibodies
B1 | 35%
B2 | 100%
B3 | 8%
B4 | 12.8%
B5 | 0%
B6 | 0.4%
B7 | 2.2%
B8 | 5%
B9 | 25.5%
B10 | 3%
B11 | 1.3%
B12 | 2.5%
B13 | 0%
B14 | 35.5%
B15 | 0%
B16 | 0.3%
B17 | 0%
B18 | 3%
B19 | 1.4%
